Test results from PMC2172684.
Read-outs that look alike come from different tables or passages of the source.

Experiments:
Test in all cases: ELISA
[1] = target: importin α (UniProt P52292)
[2] = target: importin α (UniProt P52292); remark: listed apart in the source
[3] = target: GST–RanGTP (UniProt P62826)

Kd [1] [nM] | Kd [2] [nM] | Kd [3] [nM] | Substance
2.5 | – | – | importin β (304–876) (from UniProt Q14974 304-876) (domain or fragment)
– | 1.3 | – | importin β E214A (from UniProt Q14974 1-876) (natural protein)
– | 1.1 | – | importin β I178A (from UniProt Q14974 1-876) (natural protein)
1.1 | 1.2 | – | importin β I178A/F217A/Y255A/I263R (m-N) (from UniProt Q14974 1-876) (natural protein)
– | 1.2 | – | importin β I178D (from UniProt Q14974 1-876) (natural protein)
– | 1.1 | – | importin β I178D/Y255A (from UniProt Q14974 1-876) (natural protein)
– | 0.9 | – | importin β I263R (from UniProt Q14974 1-876) (natural protein)
2.2 | – | – | importin β L612D/F688A (m-C) (from UniProt Q14974 1-876) (natural protein)
4.3 | – | – | importin β m-C (304–876) (from UniProt Q14974 304-876) (domain or fragment)
2.1 | – | – | importin β m-N/m-C (from UniProt Q14974 1-876) (natural protein)
0.9 | 0.9 | – | wild-type importin β (from UniProt Q14974 1-876) (natural protein)
– | – | 3.3 | wild-type importin β (from UniProt Q14974 1-876) (natural protein; other documents disagree on this pair)
